Source: US6933149B2, “Culture system for mouse tracheal epithelial cells” (North Carolina State University, priority 2001, dated 2005)

System: MTE cell cultures
Test: IL-13 treatment of MTE cell cultures, Periodic Acid Schiff-stained cross-sections
Assay type: cell-based, mouse
Conditions: for proliferation of MTE cell cultures in response to IL-13: Method 2 cultures (5% serum until air/liquid interface)
Method: FIGS. 2A and 2B includes two photographs of Periodic Acid Schiff-stained cross-sections of MTE cell cultures. FIG. 2B depicts the control culture that was only exposed to the normal media required for MTE cell growth, while FIG. 2A depicts the IL-13-treated culture which was exposed to recombinant murine IL-13 (10ng/ml) for 9 days.
Epithelial cells isolated from the trachea of two mice were used to seed a one cm^2 area. Cells were placed in the apical chamber of the culture insert in medium comprising DMEM F12 plus additives (see above table). The basolateral chamber was supplied with medium and 10% FCS for 24 hours, after which FCS was no longer added to the basolateral media. Cells were maintained for 5 days and then the apical media was removed to create an air/liquid interface. Cells were then maintained in culture for approximately 16 more days.
The present methods were also used to achieve MTE cultures grown with 5% serum until the air/liquid interface is established. This is referred to as “Method 2—Combination.” This approach allows for more rapid growth of the cells while removing the confounding effects of serum for the experimentation period. […] FIGS. 2A and 2B illustrate the increase in the epithelial cell number of cell cultures exposed to an IL-13 regimen. Specifically FIGS. 2A and 2B show two photographs of Periodic Acid Schiff-stained cross-sections of MTE cell cultures. FIG. 2A depicts an IL-13-treated culture that was exposed to recombinant murine IL-13 (10ng/ml) for 9 days while FIG. 2B is a photograph of a control culture that was only exposed to the normal media required for MTE cell growth.

B1: IL-13: recombinant murine IL-13, an inflammatory mediator shown to mediate epithelial cell proliferation (protein, UniProt P20109 19-131, looked up)
Interleukin-13: APGPVPRSVSLPLTLKELIEELSNITQDQTPLCNGSMVWSVDLAAGGFCVALDSLTNISNCNAIYRTQRILHGLCNRKAPTTVSSLPDTKIEVAHFITKLLSYTKQLFRHGPF
How did the “proliferation of MTE cell cultures in response to IL-13” value turn out when B1 was run?
The value was “respond to IL-13 with proliferation”.

And the “proliferation of MTE cell cultures in response to IL-13” value (listed as interleukin 13)?
The value was “proliferate”.

What about the epithelial cell number (recombinant murine IL-13 10ng/ml for 9 days vs control culture in normal media, FIGS. 2A and 2B) of the same molecule?
Its epithelial cell number is “increase in epithelial cell number”.
